According to article PMC8519809 (Cell Reports, 2021):

T1: MERS stem helix peptide (MERS-CoV)
T1 chain: DFQDELDEFFKNVST

T2: SARS-CoV-2 stem helix peptide (SARS-CoV-2)
T2 chain: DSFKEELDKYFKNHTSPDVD

B1: Fab22 (Fab, V domains shown)
VH: EVQLQQPGPVLVKPGASVRMSCKASGYRITDNFMNWVKQSHGKSLEWIGIINPYNGGTKYNQKFKGKATLTVDTSSSTAYMELNSLTSEDSAVYYCTRVRGNDYHGRAMDYWGQGTSVTVSS
VL: DVVLTQTPLSLPVNIGDQASISCKSTKSLLNRDGFTFLDWYLQKPGQSPQLLIYLVSNRFSGVPDRFSGSGSGTDFTLKISRVEAEDLGVYYCFQSNYLFTFGSGTKLEIK
B2: LCmod-Fab22 (Fab, V domains shown)
VH: B1 VH
VL: B1 VL

Assays:
MERS stem helix peptide = target: T1, MERS stem helix peptide; assay: crystal structure
[1] = target: T2, SARS-CoV-2 stem helix peptide; assay: crystal structure

Binder	binding result (MERS stem helix peptide)	binding result [1]
B1	binds	
B2		binds
